Measured values as given in the supplement of paper PMC10126150.
± gives the standard deviation of the averaged measurements.

Test system: ATP
Test: switch fluorescence ratio, 500 uM ATP over buffer (Cy3 cluster intensity, sum of 5 cycles each) (fold (ratio)); higher = stronger signal-on switching upon ATP binding; sequences stand for … in TCGTCGGCAGCGTCAGATGTGTATAAGAGACAGTTTTTTTTTTTTTTTTTTTTTTTTT…TC
Details: aptamer strand: ATP DNA aptamer (quencher-CACCTGGGGGAGTATTGCGGAGGAAGG + anchor), 100 nM annealed; ATP concentration: 500 uM
Procedure, shortened: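 Between each of five buffer/ATP cycles, the flow-cell was stripped with NaOH and re-annealed. Each cycle imaged Cy3-labelled switching-strand clusters, annealed to 100 nM quencher-labelled ATP aptamer on a modified Illumina MiSeq flow-cell, first in selection buffer and then after 15 min with 500 uM ATP at 22 °C. The fluorescence ratio is summed target-cycle over summed buffer-cycle Cy3 intensity per cluster, averaged per switch-domain sequence, with clusters outside 100-1000 RFU excluded.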
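Also: ATP exposure 15 min at 22 °C before imaging.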

Sequence	switch fluorescence ratio
CGGGTCAACT	0.963 ± 0.014
CGGGTCAGTG	0.968 ± 0.04
CGGGTCGCTT	0.9738 ± 0.004
CGGGTCGGGC	0.991 ± 0.013
CGGGTCTCGA	1.03 ± 0.04
CGGGTCTTGC	0.981 ± 0.035
CGGGTGACGG	1.05 ± 0.057
CGGGTGATTA	1 ± 0.035
CGGGTGCCAT	0.994 ± 0.018
CGGGTGCTTT	1.05 ± 0.013
CGGGTGGAGC	0.952 ± 0.011
CGGGTGGAGG	1.02 ± 0.018
CGGGTGGTTT	0.988 ± 0.03
CGGGTGTAGG	1.02 ± 0.062
CGGGTTAAAC	1 ± 0.027
CGGGTTAGCC	0.998 ± 0.021
CGGGTTAGTA	1.02 ± 0.042
CGGGTTCAGA	1.051 ± 0.0054
CGGGTTGTGG	1.02 ± 0.062
CGGGTTTAAT	0.94 ± 0.029
CGGGTTTGAA	0.972 ± 0.024
CGGTAAAGAT	1 ± 0.058
CGGTAACCGC	0.994 ± 0.098
CGGTAACGAA	1.04 ± 0.014
CGGTACAAGT	1 ± 0.032

Sequence	switch fluorescence ratio
CGGTACATTG	1.004 ± 0.0053
CGGTACCGGG	1.022 ± 0.0061
CGGTACTGAT	1.0316 ± 0.00064
CGGTAGCGGG	1.008 ± 0.007
CGGTAGGCGA	0.985 ± 0.027
CGGTAGGGGA	1.023 ± 0.01
CGGTAGGGGC	0.968 ± 0.015
CGGTAGGTGG	1.01 ± 0.057
CGGTAGGTTT	0.9898 ± 0.0057
CGGTAGTTAC	1.25 ± 0.059
CGGTATAGCA	0.971 ± 0.027
CGGTATAGTT	0.988 ± 0.022
CGGTATGGGA	0.979 ± 0.044
CGGTATGGTA	0.972 ± 0.023
CGGTCAAGGT	1.003 ± 0.0076
CGGTCACTG	1.002 ± 0.0069
CGGTCACTGT	1.03 ± 0.038
CGGTCAGGGC	1.02 ± 0.014
CGGTCAGGGG	1.11 ± 0.023
CGGTCATACT	1.21 ± 0.029
CGGTCGCCGG	1.01 ± 0.02
CGGTCGCGTG	0.988 ± 0.02
CGGTCGCTTG	1.02 ± 0.032
CGGTGAAGCC	0.984 ± 0.019
CGGTGACGCG	0.982 ± 0.028

Sequence	switch fluorescence ratio
CGGTGACTCG	1.03 ± 0.029
CGGTGAGCGA	1.03 ± 0.044
CGGTGAGGGG	0.989 ± 0.011
CGGTGAGTTG	1.03 ± 0.04
CGGTGATATT	1.03 ± 0.052
CGGTGCTTTT	1 ± 0.011
CGGTGGGCTA	1.013 ± 0.0052
CGGTGGGGGT	0.988 ± 0.022
CGGTGGGGTA	1.01 ± 0.033
CGGTGTAGCT	1.03 ± 0.019
CGGTGTGCGG	0.995 ± 0.037
CGGTGTTAGC	0.976 ± 0.0015
CGGTGTTGGC	1.05 ± 0.081
CGGTGTTTTC	0.972 ± 0.046
CGGTTAAAGG	0.974 ± 0.03
CGGTTAAGGG	0.982 ± 0.038
CGGTTAGAGG	0.989 ± 0.0013
CGGTTAGATA	0.987 ± 0.019
CGGTTATTGA	1.02 ± 0.022
CGGTTCGCCT	0.998 ± 0.016
CGGTTCGGCT	1.04 ± 0.047
CGGTTCTACG	1.009 ± 0.0053
CGGTTCTGTG	1 ± 0.012
CGGTTGACGG	0.9494 ± 0.0017
CGGTTGAGTT	1.02 ± 0.04

Sequence	switch fluorescence ratio
CGGTTGCTTG	0.996 ± 0.034
CGGTTGGGGA	0.985 ± 0.036
CGGTTGGTTT	1.02 ± 0.017
CGGTTGTTTT	1.023 ± 0.0065
CGGTTTAGCG	0.98 ± 0.029
CGGTTTAGGC	0.93 ± 0.026
CGGTTTATTG	1 ± 0.036
CGGTTTCTCG	0.982 ± 0.02
CGGTTTGGGA	0.994 ± 0.035
CGGTTTGTAT	0.985 ± 0.023
CGGTTTTAGC	0.968 ± 0.042
CGGTTTTATT	0.982 ± 0.028
CGGTTTTGAG	1.01 ± 0.034
CGGTTTTGTG	0.962 ± 0.031
CGTAAAACGC	1.02 ± 0.03
CGTAAAAGGC	0.994 ± 0.027
CGTAAAGCAG	1.01 ± 0.061
CGTAAAGGGG	0.983 ± 0.026
CGTAAATGTG	0.9668 ± 0.0066
CGTAACAATG	1.1 ± 0.034
CGTAACTGGT	0.978 ± 0.018
CGTAAGCGAG	1.03 ± 0.062
CGTAAGGGGA	1.05 ± 0.064
CGTAAGTGCA	1 ± 0.024
CGTAATAGTC	1.81 ± 0.15

Sequence	switch fluorescence ratio
CGTAATGGCA	1.01 ± 0.017
CGTAATGTCT	1.06 ± 0.031
CGTAATGTTA	1.01 ± 0.019
CGTACATGAG	1.02 ± 0.037
CGTACATGAT	1.02 ± 0.022
CGTACGAAGG	0.971 ± 0.028
CGTACGAATG	0.9769 ± 0.007
CGTACGGTCT	1.05 ± 0.059
CGTACGTGGC	1.125 ± 0.0035
CGTACGTTG	1 ± 0.022
CGTACTGAAA	1.04 ± 0.0087
CGTACTGTGG	0.9977 ± 0.0099
CGTAGATACA	1.03 ± 0.036
CGTAGCGGGG	1.11 ± 0.022
CGTAGGATGT	1.02 ± 0.044
CGTAGGGGTA	1.11 ± 0.32
CGTAGGTGTG	1.02 ± 0.021
CGTAGTAACT	1.11 ± 0.022
CGTAGTATAG	1.24 ± 0.017
CGTAGTCTGG	1.05 ± 0.038
CGTAGTGGCT	1.04 ± 0.04
CGTATAAGAG	0.991 ± 0.027
CGTATAATAG	1.02 ± 0.04
CGTATATTGT	0.983 ± 0.061
CGTATCATTG	0.997 ± 0.042

Sequence	switch fluorescence ratio
CGTATCCGGT	1.03 ± 0.0019
CGTATCCGTA	0.987 ± 0.042
CGTATGATAG	1.015 ± 0.0047
CGTATGCAAA	1.06 ± 0.058
CGTATGCGCA	0.97 ± 0.028
CGTATGGGAG	0.9452 ± 0.0036
CGTATGGGTG	1.02 ± 0.04
CGTATGGTTA	1.02 ± 0.038
CGTATTAAGC	0.955 ± 0.015
CGTATTAGTA	0.9926 ± 0.0054
CGTATTATTG	1.01 ± 0.02
CGTATTCGTA	0.978 ± 0.019
CGTATTTAAA	1.01 ± 0.013
CGTCAATTAT	1.14 ± 0.054
CGTCACATGT	1.009 ± 0.0048
CGTCACCATG	1.037 ± 0.0026
CGTCATATTA	1.008 ± 0.0025
CGTCATCCAT	0.9881 ± 0.0021
CGTCCACGGA	0.9936 ± 0.0096
CGTCCAGCGT	1.2 ± 0.067
CGTCCGAAGG	1.03 ± 0.041
CGTCCGACTT	1.2 ± 0.089
CGTCCTGGGG	1.12 ± 0.048
CGTCGCAGAA	1.093 ± 0.004
CGTCGCGTAT	1.03 ± 0.021

Sequence	switch fluorescence ratio
CGTCGCTGGG	1.0111 ± 0.00071
CGTCGCTTTT	1.022 ± 0.0052
CGTCGGGGGG	1.008 ± 0.008
CGTCGGGGTG	1 ± 0.017
CGTCGGTAAG	1.04 ± 0.027
CGTCTAGAA	0.963 ± 0.048
CGTCTGATAG	0.99 ± 0.033
CGTCTGGGGG	1.01 ± 0.021
CGTGAAAAGA	0.986 ± 0.033
CGTGAAAGCT	1.18 ± 0.037
CGTGAAAGTA	0.996 ± 0.049
CGTGAAGCGT	0.998 ± 0.039
CGTGAAGTCG	0.954 ± 0.025
CGTGAATTTT	1 ± 0.037
CGTGAGGATT	1 ± 0.022
CGTGAGGGTC	1 ± 0.059
CGTGAGGTGA	1.01 ± 0.035
CGTGAGTACG	0.992 ± 0.01
CGTGATATCT	1.05 ± 0.018
CGTGATTACT	1.17 ± 0.11
CGTGCACCGG	1 ± 0.031
CGTGCCCGGA	1.03 ± 0.032
CGTGCCCGGT	1.02 ± 0.022
CGTGCCGTGG	0.995 ± 0.024
CGTGCGGGAA	1.004 ± 0.0069

Sequence	switch fluorescence ratio
CGTGCTCAGG	1.162 ± 0.011
CGTGCTTTTT	1.01 ± 0.018
CGTGGAGGTA	0.985 ± 0.041
CGTGGAGGTG	1.07 ± 0.036
CGTGGCAGGG	0.984 ± 0.033
CGTGGGATAT	1.0053 ± 0.00092
CGTGGGCGTG	0.9797 ± 0.0013
CGTGGGGAAG	0.998 ± 0.023
CGTGGGGATC	1.06 ± 0.022
CGTGGGGGAG	1.02 ± 0.066
CGTGGGGGCT	1 ± 0.019
CGTGGGGGTG	0.993 ± 0.029
CGTGGTGGGT	0.963 ± 0.025
CGTGGTTAGT	0.964 ± 0.023
CGTGGTTGAG	0.976 ± 0.018
CGTGTAATGG	1.042 ± 0.0015
CGTGTATATG	1.01 ± 0.029
CGTGTATGGG	1 ± 0.037
CGTGTCAGGG	1 ± 0.034
CGTGTGGAAA	1.02 ± 0.018
CGTGTTAACT	0.992 ± 0.047
CGTGTTAGGG	1.0062 ± 0.00077
CGTGTTGGAT	0.997 ± 0.062
CGTGTTGGG	1 ± 0.028
CGTGTTGGGT	0.998 ± 0.048
